Test results published in the supplement of paper PMC12455559.

Experiment: purified protein yield per well (BCA); higher = higher soluble expression
Procedure: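 Candidate PET hydrolases were expressed in E. coli C41(DE3) in 2 mL autoinduction cultures in 24-deep-well plates, Ni-bead purified and released by SUMO protease cleavage on an OT-2 robot. Yield per well was measured by BCA; values below 25 ug (0.1 mg/mL) are below the detection threshold. Melting temperature was measured by differential scanning fluorimetry with Sypro Orange, ramping from 25 C at 0.3 C/step.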

| Sequence | purified protein yield per well |
| --- | --- |
| FTASQSSIQWYGPLLAGEGFVVITIDTNTIFDQPDSRATQLLAALDYLTGSSDVRHIVDPNRLAVAGWSMGGGGSLEAAVRRPSLKAAIPLAGWHTTKTFNTAVPTLVVACENDAVAGNAQHSGPFYDGLPASTPKAYLEIAGGDHTCVGSYDINIATPVVAWAKRWVNGDTSASAQLCPPKPIGGPISDSKANCPY [ESM171] | < 25 µg |
| CASVASPPAATLAALSGNGSYEVMTYTDFPDVPEFGDATIYYPQDAPAPVGGVAIAPGFTEVQSHISWWGPRLASHGFAVLVLDTNDRRDRPDLRADALIAAVTLLRAENSRSGSPLNSRIDVGKMAIMGHSMGGGGVLLAANEHSDQIQAAIPFTPWVPDVEFGNITVPTLVIAGSADRIANVTDHAWRHF [TEP113] | < 25 µg |
| LWLGLGGVLSLIGFVVIGVETNSRTDYDVARGTQLLAALDYLTQQSPVRNRVDPNRLGVIGHSMGGGGVVYATEHRPALKAAVALAPFSPSQNMSTDTVPTMVMAGQNDTVVTPSYLSGLYATMPAATQSDFLQIAGADHVYYTHPNSVEMRILIPWIKTFLDNDTRYTQVICPGLAL [TEP112] | < 25 µg |
| TPEAPAARAAENPYERGPDPTESSIEAPRGSYSVSERSVSSLSVRGFGGGTIYYPTSTADGTFGAVAISPGFTARQSSMAWYGERLASQGFVVFTIDTNTTMDQPASRGDQLLAALDYLTDDSAVRSRIDSNRLAVMGHSMGGGGSLEAAKDRPSLKAAIPLTPWNTDKSWPEVRVPTFIVGADGDSIASVRSHAEPFYESLPSSTDRAYMELRNATHFAPNSADTEIAKYSISWLKRFVDEDTRYEQFLCPIPSSDLQIAEFRGNCPH [TEP075] | < 25 µg |
| SASASAPAASRVQAAASGNTYQRGPDPTLSSVAASTGPFATAQVSVPAGYGFKGGMIYYPTDTSLGTWGAVAIVPGYTALFANEEAWMGPWLASFGFVVIGVETNSTTDYDTQRGTELLAALNYLTTQSPVRDRVDPTRLGVIGHSMGGGGVVYATEHQPSLKGAVALAPFSPSQSMATDTVPTMVMGGQNDTVVTPSYLAGLYATLPASTQSDFIQIAGADHIYYTHPNPVEMRILIPWLKTFLDEDTRYTQFLCPTLADPSGVSMYQSKCPYVPGGGSTPPPPAGGALHAVGAGKCVDVPNSTTTSGTQVQIYSCNGQANQAFTHNSAGELAVTDAGVTDCLDANGKGTTNGTKVIIYPCNGQPNQQWTINSNGTITGVQSGLCLDVTGASTANGALVELWTCNGGSNQKWTLS [TEP058] | < 25 µg |
| DEVGQAPTAANIVGDGSFATTSSAITGQSGFGGGTVYYPTTAGRYPVVAVAPGFLSDWNSLNWLGSRVASWGFVVVGVNTNSGFDFPPSRGDQLLAALNWAVGSAPVAVRDKVDGTRRGVAGWSMGGGGTLEALAKDTTGTVKAGVPLAPWHSDKTWEQVSEPVFLVGGQNDTVAAPSSHAIPFYNSLGGQKSYLELAGQAHFFPTTSNPTVSRAIVSWFKRFVSSDNRFTPFTCGYTGSAVSNFRSSAC [ESM100] | < 25 µg |
| YQRGPDPTRSALTADGPFSVTTYTVSRYAVTGFGGGVIYYPTGTSLTFGGIAVSPGYTADASSLAWFGRRLASHGFVVLVINTNSRFDFPDSRASQLAAALDYLVSRSPSAVRARLDTSRLAVAGHSMGGGATLRISENRPSLKAAVPLTPWHTDKTFNTAVPQLIIGAENDTVAPVSDHAIPFYQNLPSTTPKVYLELNNASHF [TEP127] | < 25 µg |
| WLTSAASPVRARVDANRLGVGGHSMGGGGAIEAASEMPSLKASIGFEPWNGIGSWPGVRVPTMIQGAQNDNIAPVAQHSEPFYNSMTNAPEKAYAEFTGASHFFSGQAGPATTRLSVSWYKRFLDNDTRYDQFLCPGPRSPEVVEYRNTCPLTTPGGGGGTTTTTGPGTTTTTRPTTTTTAPPAQCQWWEWWCWLGWG [TEP046] | < 25 µg |
| ADNPYQRGPNPTLSSVRAGSGPYATTSTTVARSAVSGFGGGTVYYPTSTSDGTFGAVAMCPGYTATKESLAWFGPRVASHGFVVFIIDTVTTSDQPAQRGDELLAALDHLTRTSSVRSRIDASRLAVAGHSMGGGGTLEAAKDRPGLRAAVPLAPWNTTKNWSGNRVPTLIIGGQSDTIAAVSSHAVPFYTSLPTTPDKAYLE [DP074] | < 25 µg |
| VENGPAPTLAAIQKDGPYAVTAQAIKGSGFGSGTIYVPNAAGQYALVAVCPGFVSPESSITAISKRLATHGFVVVTIATNTLLDFPSSRASQILAALKAAAGTTTGAVAGKIDVSRQVASGWSMGGGGTLEAAASTPGLVAAVAYAPWNTSSTKYKTITVPSLILGGTADVIAPVAQHSQPFYNAIPATTPKMLAVIQGASHFFPNSAGEPQSYTNISWVKRFADGDTRYGTFLNTKDAAFSTVQSTGPF [ESM089] | < 25 µg |
